Test results taken from PMC3258161.

Molecular target: PL6S* (PvuII-L6-I-SceI* fusion enzyme: wt PvuII fused via linker L6 to I-SceIΔC9,D44N,D145A) (UniProt P03882)
Assay: AUC

stoichiometry N: 2
Substance: PL6S* (PvuII-L6-I-SceI* fusion enzyme: wt PvuII fused via linker L6 to I-SceIΔC9,D44N,D145A) (from UniProt P03882 1-226)
